Source: publication PMC4051119, “Bacterial actin MreB forms antiparallel double filaments” (eLife, 2014)

What was measured:
[1] = target: the molecule itself; test: negative-stain electron microscopy; pre-assembled filaments (CcMreB 0.25 mg/ml, V118E 0.13 mg/ml) in 12.5 mM Tris-HCl 7.5, 2 mM ATP, 4 mM MgCl2 on a monolayer of E. coli total lipid extract, 2% uranyl acetate; 2D averaging
[2] = target: the molecule itself; test: crystal structure; C. crescentus MreB constructs crystallised at 10-30 mg/ml, empty or with ADP or AMPPNP, no inhibitor; filament or monomer state read from the crystal packing
[3] = target: the molecule itself; test: as above; remark: listed apart in the source
[4] = target: the molecule itself; test: cryo-electron microscopy and tomography; MreB 1 mg/ml with 1 mg/ml liposomes (E. coli total lipid extract) or lipid tubes (plus 30% C24:1 β-D galactosyl ceramide), 2 mM ATP, 4 mM MgCl2; CcMreB in 12.5 mM Tris-HCl 7.5, TmMreB in 100 mM Tris-HCl 7.5, 200 mM NaCl; 2D and subtomogram averaging

B1: Full-length, untagged MreB from C. crescentus (CcMreB) (natural protein, Caulobacter crescentus, UniProt A0A0H3C7V4 1-347, looked up)
chain: MFSSLFGVISNDIAIDLGTANTLIYQKGKGIVLNEPSVVALRNVGGRKVVHAVGIEAKQMLGRTPGHMEAIRPMRDGVIADFEVAEEMIKYFIRKVHNRKGFVNPKVIVCVPSGATAVERRAINDSCLNAGARRVGLIDEPMAAAIGAGLPIHEPTGSMVVDIGGGTTEVAVLSLSGIVYSRSVRVGGDKMDEAIISYMRRHHNLLIGETTAERIKKEIGTARAPADGEGLSIDVKGRDLMQGVPREVRISEKQAADALAEPVGQIVEAVKVALEATPPELASDIADKGIMLTGGGALLRGLDAEIRDHTGLPVTVADDPLSCVALGCGKVLEHPKWMKGVLESTLA
notes: MreB, Caulobacter crescentus, GenBank ACL95077.1, M1-A347; Forms filaments (double protofilaments); number of copies not defined; also called Caulobacter MreB; pFE403 (plasmid); source: E. coli C41, purified (HisTrap, elution by SUMO protease, GST column, S300HR size exclusion)
B1: binds [1].

B2: CcMreB-V118E (inter-protofilament mutant V118E in full-length CcMreB) (natural protein, Caulobacter crescentus, UniProt A0A0H3C7V4 1-347, looked up)
chain: MFSSLFGVISNDIAIDLGTANTLIYQKGKGIVLNEPSVVALRNVGGRKVVHAVGIEAKQMLGRTPGHMEAIRPMRDGVIADFEVAEEMIKYFIRKVHNRKGFVNPKVIVCVPSGATAEERRAINDSCLNAGARRVGLIDEPMAAAIGAGLPIHEPTGSMVVDIGGGTTEVAVLSLSGIVYSRSVRVGGDKMDEAIISYMRRHHNLLIGETTAERIKKEIGTARAPADGEGLSIDVKGRDLMQGVPREVRISEKQAADALAEPVGQIVEAVKVALEATPPELASDIADKGIMLTGGGALLRGLDAEIRDHTGLPVTVADDPLSCVALGCGKVLEHPKWMKGVLESTLA
notes: MreB, Caulobacter crescentus, GenBank ACL95077.1, full length with V118E; also called pFE542 (plasmid); source: E. coli C41, purified (HisTrap, elution by SUMO protease, GST column, S300HR size exclusion); not shown: His-SUMO, N-terminal, cleaved
B2: binds [1].

B3: ΔCcMreBh (M-I9-CcMreB-A347-GSHHHHHH) (domain or fragment, Caulobacter crescentus)
chain: MISNDIAIDLGTANTLIYQKGKGIVLNEPSVVALRNVGGRKVVHAVGIEAKQMLGRTPGHMEAIRPMRDGVIADFEVAEEMIKYFIRKVHNRKGFVNPKVIVCVPSGATAVERRAINDSCLNAGARRVGLIDEPMAAAIGAGLPIHEPTGSMVVDIGGGTTEVAVLSLSGIVYSRSVRVGGDKMDEAIISYMRRHHNLLIGETTAERIKKEIGTARAPADGEGLSIDVKGRDLMQGVPREVRISEKQAADALAEPVGQIVEAVKVALEATPPELASDIADKGIMLTGGGALLRGLDAEIRDHTGLPVTVADDPLSCVALGCGKVLEHPKWMKGVLESTLA
notes: start methionine placed before I9; MreB, Caulobacter crescentus, GenBank ACL95077.1, I9-A347 (N-terminal amphipathic helix deleted); Electrospray mass 36,916 Da (36,911 Da expected); also called CCM2; source: E. coli C41(DE3), purified (HisTrap, Sephacryl S300HR)
B3: binds [2].

B4: ΔCcMreBdh (M-I9-CcMreB(F102S, V103G)-A347-GSHHHHHH) (domain or fragment, Caulobacter crescentus)
chain: MISNDIAIDLGTANTLIYQKGKGIVLNEPSVVALRNVGGRKVVHAVGIEAKQMLGRTPGHMEAIRPMRDGVIADFEVAEEMIKYFIRKVHNRKGSGNPKVIVCVPSGATAVERRAINDSCLNAGARRVGLIDEPMAAAIGAGLPIHEPTGSMVVDIGGGTTEVAVLSLSGIVYSRSVRVGGDKMDEAIISYMRRHHNLLIGETTAERIKKEIGTARAPADGEGLSIDVKGRDLMQGVPREVRISEKQAADALAEPVGQIVEAVKVALEATPPELASDIADKGIMLTGGGALLRGLDAEIRDHTGLPVTVADDPLSCVALGCGKVLEHPKWMKGVLESTLA
notes: start methionine placed before I9; MreB, Caulobacter crescentus, GenBank ACL95077.1, I9-A347, hydrophobic loop mutated (F102S, V103G); Electrospray mass 36,813 Da (36,809 Da expected); also called pFE397 (plasmid); source: E. coli C41(DE3), purified (HisTrap, Sephacryl S300HR)
B4: binds [3].

B5: Full-length untagged Thermotoga maritima MreB1 (TmMreB) (natural protein, UniProt Q9WZ57 1-336, looked up)
chain: MLRKDIGIDLGTANTLVFLRGKGIVVNEPSVIAIDSTTGEILKVGLEAKNMIGKTPATIKAIRPMRDGVIADYTVALVMLRYFINKAKGGMNLFKPRVVIGVPIGITDVERRAILDAGLEAGASKVFLIEEPMAAAIGSNLNVEEPSGNMVVDIGGGTTEVAVISLGSIVTWESIRIAGDEMDEAIVQYVRETYRVAIGERTAERVKIEIGNVFPSKENDELETTVSGIDLSTGLPRKLTLKGGEVREALRSVVVAIVESVRTTLEKTPPELVSDIIERGIFLTGGGSLLRGLDTLLQKETGISVIRSEEPLTAVAKGAGMVLDKVNILKKLQGAG
notes: MreB1, Thermotoga maritima, GenBank AAD35673.1, M1-G336; called non-tagged / untagged; also called pFE349 (plasmid); source: expressed as an Intein-CBD-tagged fusion from plasmid pFE349 and purified as described previously (Salje et al., 2011)
B5: binds [4].
